# Laboratory results: patent US20190315854A1 (BEIJING VDJBIO, published 2019)
# T1: sIL-6R (soluble IL-6 receptor; SBH Sciences) (human, UniProt P08887 20-365)
# T1 construct: also called human IL-6R
# T1 sequence: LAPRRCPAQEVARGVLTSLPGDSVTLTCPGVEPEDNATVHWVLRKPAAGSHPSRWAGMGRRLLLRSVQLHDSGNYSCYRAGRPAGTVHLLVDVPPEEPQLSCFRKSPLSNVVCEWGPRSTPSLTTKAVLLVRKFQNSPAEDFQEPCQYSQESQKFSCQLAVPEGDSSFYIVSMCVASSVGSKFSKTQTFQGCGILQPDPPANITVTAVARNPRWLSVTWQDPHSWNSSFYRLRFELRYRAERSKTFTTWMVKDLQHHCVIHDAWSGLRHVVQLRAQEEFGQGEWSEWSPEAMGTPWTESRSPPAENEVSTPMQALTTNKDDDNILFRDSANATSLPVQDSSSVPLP
# Target: T1, sIL-6R (soluble IL-6 receptor; SBH …)
# Assay: SPR (BIAcore 3000), antibody on chip, sIL-6R analyte, 25 C
# Procedure: All SPR measurements were performed on a BIAcore 3000 instrument (GE Biosciences, Piscataway, N.J.). BIAcore Software-BIAcore 3000 Control Software V3.2 was used for the operation and control of the BIAcore 3000 instrument. BiaEvaluation Software V4.1 was used for the analysis of SPR data from the BIAcore 3000 instrument and data was plotted using Graph Pad Prism Software Version 5. […] The indicated antibodies were used as the ligand for the construction of the reference channel of the chip. […] Each sample was injected for 3 min at a flow rate of 30 μL/min to allow for binding to chip-bound antibody. Next, binding buffer without analyte was sent over the chip at the same flow rate to allow for dissociation of bound analyte. After 500s, remaining bound analyte was removed by injecting regeneration solution (1M Formic acid). Data was analyzed by using the Kinetics Wizard and the manual fitting programs that are both included with the BiaEvaluation Software V4.1.
Binder,Kd [nM],Relative Affinity,koff [s⁻¹],kon [M⁻¹ s⁻¹]
"242# (antibody, human IgG1, kappa, V domains shown, also called Sample # 242) VH: QVQLQESGPGLVRPSQTLSLTCTVSGYSITSDHAWSWVRQPPGRGLEWIGYISYSGMITYNPSLKSRVTMLRDTSKNQFSLRLSSVTAADTAVYYCARSLARMTAIDFWGQGSLVTVSS VL: DIQMTQSPSSLSASVGDRVTITCRASQDISSYLNWYQQKPGKAPKLLIYYTSRLHSGVPSRFSGSGSGTDFTFTISSLQPEDIATYYCGQGNRLPYTFGQGTKVEIKR",1.24,2.6 fold vs 25 (Tocilizumab),8.71e-05,70200
"228# (antibody, human IgG1, kappa, V domains shown, also called Sample # 228) VH: QVQLQESGPGLVRPSQTLSLTCTVSGYSITSDHAWSWVRQPPGRGLEWIGYISYSGMTTYNPSLKSRVTMLRDTSKNQFSLRLSSVTAADTAVYYCARCLARMTAIDFWGQGSLVTVSS VL: DIQMTQSPSSLSASVGDRVTITCRASQDISSYLNWYQQKPGKAPKLLIYYTSRLHSGVPSRFSGSGSGTDFTFTISSLQPEDIATYYCQQGNTLPYTFGQGTKVEIKR",0.204,15.5 fold vs 25 (Tocilizumab),3.04e-05,149000
"235# (antibody, human IgG1, kappa, V domains shown) VH: QVQLQESGPGLVRPSQTLSLTCTVSGYSITSDHAWSWVRQPPGRGLEWIGYISYSGMITYNPSLKSRVTMLRDTSKNQFSLRLSSVTAADTAVYYCARTLARMTAIDFWGQGSLVTVSS VL: DIQMTQSPSSLSASVGDRVTITCRASQDISSYLNWYQQKPGKAPKLLIYYTSRLHSGVPSRFSGSGSGTDFTFTISSLQPEDIATYYCQQGNTLPYTFGQGTKVEIKR",0.297,10.6 fold vs 25 (Tocilizumab),3.81e-05,128000
"234# (antibody, human IgG1, kappa, V domains shown) VH: QVQLQESGPGLVRPSQTLSLTCTVSGYSITSDHAWSWVRQPPGRGLEWIGYISYSGMTTYNPSLKSRVTMLRDTSKNQFSLRLSSVTAADTAVYYCARCLARMTAMDYWGQGSLVTVSS VL: DIQMTQSPSSLSASVGDRVTITCRASQDISSYLNWYQQKPGKAPKLLIYYTSRLHSGVPSRFSGSGSGTDFTFTISSLQPEDIATYYCQQGNTLPYTFGQGTKVEIKR",0.37,8.5 fold vs 25 (Tocilizumab),5.69e-05,154000
"243# (antibody, human IgG1, kappa, V domains shown) VH: QVQLQESGPGLVRPSQTLSLTCTVSGYSITSDHAWSWVRQPPGRGLEWIGYISYSGMITYNPSLKSRVTMLRDTSKNQFSLRLSSVTAADTAVYYCARCLARTTAIDFWGQGSLVTVSS VL: DIQMTQSPSSLSASVGDRVTITCRASQDISSYLNWYQQKPGKAPKLLIYYTSRLHSGVPSRFSGSGSGTDFTFTISSLQPEDIATYYCGQGNRLPYTFGQGTKVEIKR",0.273,11.6 fold vs 25 (Tocilizumab),1.94e-05,71000
"236# (antibody, human IgG1, kappa, V domains shown) VH: QVQLQESGPGLVRPSQTLSLTCTVSGYSITSDHAWSWVRQPPGRGLEWIGYISYSGMTTYNPSLKSRVTMLRDTSKNQFSLRLSSVTAADTAVYYCARCLARATAMDYWGQGSLVTVSS VL: DIQMTQSPSSLSASVGDRVTITCRASQDISSYLNWYQQKPGKAPKLLIYYTSRLHSGVPSRFSGSGSGTDFTFTISSLQPEDIATYYCQQGNTLPYTFGQGTKVEIKR",0.0829,38.1 fold vs 25 (Tocilizumab),1.53e-05,185000
"245# (antibody, human IgG1, kappa, V domains shown) VH: QVQLQESGPGLVRPSQTLSLTCTVSGYSITSDHAWSWVRQPPGRGLEWIGYISYSGMITYNPSLKSRVTMLRDTSKNQFSLRLSSVTAADTAVYYCARTLARMTAMDYWGQGSLVTVSS VL: DIQMTQSPSSLSASVGDRVTITCRASQDISSYLNWYQQKPGKAPKLLIYYTSRLHSGVPSRFSGSGSGTDFTFTISSLQPEDIATYYCGQGNRLPYTFGQGTKVEIKR",0.25,12.6 fold vs 25 (Tocilizumab),3.53e-05,141000

# More lines, in order of falling Kd, values ahead:
Kd [nM],Relative Affinity,koff [s⁻¹],kon [M⁻¹ s⁻¹],Binder
0.605,5.2 fold vs 25 (Tocilizumab),7.49e-05,124000,"229# (antibody, human IgG1, kappa, V domains shown) VH: QVQLQESGPGLVRPSQTLSLTCTVSGYSITSDHAWSWVRQPPGRGLEWIGYISYSGMITYNPSLKSRVTMLRDTSKNQFSLRLSSVTAADTAVYYCARSLARMTAIDFWGQGSLVTVSS VL: DIQMTQSPSSLSASVGDRVTITCRASQDISSYLNWYQQKPGKAPKLLIYYTSRLHSGVPSRFSGSGSGTDFTFTISSLQPEDIATYYCQQGNTLPYTFGQGTKVEIKR"
0.477,6.6 fold vs 25 (Tocilizumab),6.9e-05,144000,"227# (antibody, human IgG1, kappa, V domains shown, also called Sample # 227) VH: QVQLQESGPGLVRPSQTLSLTCTVSGYSITSDHAWSWVRQPPGRGLEWIGYISYSGMITYNPSLKSRVTMLRDTSKNQFSLRLSSVTAADTAVYYCARSLARATAMDYWGQGSLVTVSS VL: DIQMTQSPSSLSASVGDRVTITCRASQDISSYLNWYQQKPGKAPKLLIYYTSRLHSGVPSRFSGSGSGTDFTFTISSLQPEDIATYYCQQGNTLPYTFGQGTKVEIKR"
0.448,7.1 fold vs 25 (Tocilizumab),6.15e-05,137000,"230# (antibody, human IgG1, kappa, V domains shown, also called Sample # 230) VH: QVQLQESGPGLVRPSQTLSLTCTVSGYSITSDHAWSWVRQPPGRGLEWIGYISYSGMITYNPSLKSRVTMLRDTSKNQFSLRLSSVTAADTAVYYCARCLARTTAIDFWGQGSLVTVSS VL: DIQMTQSPSSLSASVGDRVTITCRASQDISSYLNWYQQKPGKAPKLLIYYTSRLHSGVPSRFSGSGSGTDFTFTISSLQPEDIATYYCQQGNTLPYTFGQGTKVEIKR"
0.387,8.2 fold vs 25 (Tocilizumab),5.75e-05,149000,"233# (antibody, human IgG1, kappa, V domains shown) VH: QVQLQESGPGLVRPSQTLSLTCTVSGYSITSDHAWSWVRQPPGRGLEWIGYISYSGMITYNPSLKSRVTMLRDTSKNQFSLRLSSVTAADTAVYYCARTLARTTAIDFWGQGSLVTVSS VL: DIQMTQSPSSLSASVGDRVTITCRASQDISSYLNWYQQKPGKAPKLLIYYTSRLHSGVPSRFSGSGSGTDFTFTISSLQPEDIATYYCQQGNTLPYTFGQGTKVEIKR"
0.319,9.9 fold vs 25 (Tocilizumab),4.81e-05,151000,"232# (antibody, human IgG1, kappa, V domains shown) VH: QVQLQESGPGLVRPSQTLSLTCTVSGYSITSDHAWSWVRQPPGRGLEWIGYISYSGMITYNPSLKSRVTMLRDTSKNQFSLRLSSVTAADTAVYYCARTLARMTAMDYWGQGSLVTVSS VL: DIQMTQSPSSLSASVGDRVTITCRASQDISSYLNWYQQKPGKAPKLLIYYTSRLHSGVPSRFSGSGSGTDFTFTISSLQPEDIATYYCQQGNTLPYTFGQGTKVEIKR"
0.202,15.6 fold vs 25 (Tocilizumab),3.61e-05,179000,"241# (antibody, human IgG1, kappa, V domains shown) VH: QVQLQESGPGLVRPSQTLSLTCTVSGYSITSDHAWSWVRQPPGRGLEWIGYISYSGMTTYNPSLKSRVTMLRDTSKNQFSLRLSSVTAADTAVYYCARCLARMTAIDFWGQGSLVTVSS VL: DIQMTQSPSSLSASVGDRVTITCRASQDISSYLNWYQQKPGKAPKLLIYYTSRLHSGVPSRFSGSGSGTDFTFTISSLQPEDIATYYCGQGNRLPYTFGQGTKVEIKR"
0.166,19 fold vs 25 (Tocilizumab),2.33e-05,140000,"244# (antibody, human IgG1, kappa, V domains shown) VH: QVQLQESGPGLVRPSQTLSLTCTVSGYSITSDHAWSWVRQPPGRGLEWIGYISYSGITTYNPSLKSRVTMLRDTSKNQFSLRLSSVTAADTAVYYCARTLARMTAIDFWGQGSLVTVSS VL: DIQMTQSPSSLSASVGDRVTITCRASQDISSYLNWYQQKPGKAPKLLIYYTSRLHSGVPSRFSGSGSGTDFTFTISSLQPEDIATYYCGQGNRLPYTFGQGTKVEIKR"
0.164,19.3 fold vs 25 (Tocilizumab),2.36e-05,144000,"239# (antibody, human IgG1, kappa, V domains shown) VH: QVQLQESGPGLVRPSQTLSLTCTVSGYSITSDHAWSWVRQPPGRGLEWIGYISYSGMITYNPSLKSRVTMLRDTSKNQFSLRLSSVTAADTAVYYCARCLARATAMDYWGQGSLVTVSS VL: DIQMTQSPSSLSASVGDRVTITCRASQDISSYLNWYQQKPGKAPKLLIYYTSRLHSGVPSRFSGSGSGTDFTFTISSLQPEDIATYYCGQGNRLPYTFGQGTKVEIKR"
0.15,21.1 fold vs 25 (Tocilizumab),2.3e-05,154000,"240# (antibody, human IgG1, kappa, V domains shown, also called Sample # 240) VH: QVQLQESGPGLVRPSQTLSLTCTVSGYSITSDHAWSWVRQPPGRGLEWIGYISYSGMITYNPSLKSRVTMLRDTSKNQFSLRLSSVTAADTAVYYCARSLARATAMDYWGQGSLVTVSS VL: DIQMTQSPSSLSASVGDRVTITCRASQDISSYLNWYQQKPGKAPKLLIYYTSRLHSGVPSRFSGSGSGTDFTFTISSLQPEDIATYYCGQGNRLPYTFGQGTKVEIKR"
0.111,28.5 fold vs 25 (Tocilizumab),1.5e-05,135000,"238# (antibody, human IgG1, kappa, V domains shown) VH: QVQLQESGPGLVRPSQTLSLTCTVSGYSITSDHAWSWVRQPPGRGLEWIGYISYSGMITYNPSLKSRVTMLRDTSKNQFSLRLSSVTAADTAVYYCARCLARTTAMDYWGQGSLVTVSS VL: DIQMTQSPSSLSASVGDRVTITCRASQDISSYLNWYQQKPGKAPKLLIYYTSRLHSGVPSRFSGSGSGTDFTFTISSLQPEDIATYYCGQGNRLPYTFGQGTKVEIKR"
